KM of Hmt1p-catalysed methylation of the H4 peptide (3H-SAM, Hanes/Wolffe plot) data for one substance are collected here from PMC2791397.

This test deals with GST-Hmt1p (S. cerevisiae) (UniProt P38074).
Sequence of GST-Hmt1p (S. cerevisiae) (P38074 whole entry): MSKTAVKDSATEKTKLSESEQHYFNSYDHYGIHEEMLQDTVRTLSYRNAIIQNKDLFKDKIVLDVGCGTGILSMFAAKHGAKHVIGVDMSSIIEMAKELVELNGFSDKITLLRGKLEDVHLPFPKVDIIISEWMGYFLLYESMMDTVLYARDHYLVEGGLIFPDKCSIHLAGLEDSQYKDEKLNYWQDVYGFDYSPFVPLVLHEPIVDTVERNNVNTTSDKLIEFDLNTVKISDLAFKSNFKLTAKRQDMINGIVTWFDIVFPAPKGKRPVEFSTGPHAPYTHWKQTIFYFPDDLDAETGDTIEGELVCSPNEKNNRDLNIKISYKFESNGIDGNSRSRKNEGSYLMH

As for “synthetic histone H4 peptide (residues 1-18) with acetyllysine at position 8 (from UniProt P02309 2-19)”, the KM of Hmt1p-catalysed methylation of the H4 peptide (3H-SAM, Hanes/Wolffe plot) came out at 0.059 µM.
